Results reported in publication PMC8203837, “Optogenetically-induced multimerization of the dopamine transporter increases uptake and trafficking to the plasma membrane” (The Journal of Biological Chemistry, 2021).

Tests used:
[1] = target: Cry2–mCh–DAT, optogenetic fusion chimera of cryptochrome 2 and DAT with an mCherry fluorescent reporter (Arabidopsis | not stated) (UniProt Q01959)
[2] = target: Cry2–mCh–DAT, optogenetic fusion chimera of cryptochrome 2 and DAT with an mCherry fluorescent reporter (Arabidopsis | not stated) (UniProt Q01959); assay: cell-surface biotinylation, SDS-PAGE and Western blot; HEK293 cells transfected with Cry2–DAT, kept in the dark (control); sulfo-NHS-SS-biotin at 4 °C, NeutrAvidin beads, 4–15% gradient gel
[3] = target: the molecule itself; assay: cross-linking; HEK293 cells stably expressing YFP–DAT, vehicle control; copper phenanthroline (100 μM CuSO4, 400 μM 1,10-phenanthroline) in PBS 10 min at RT, NEM quench, membrane enrichment (Mem-PER Plus), samples not heated, Western blot
[4] = target: the molecule itself; assay: cross-linking; as a1, but cells treated with 10 μM DA for 0.5, 2, 10, 30 or 60 min before copper phenanthroline cross-linking
[5] = target: the molecule itself; assay: cross-linking; as a1, but cells treated with 10 μM METH for 0.5, 2, 10, 30 or 60 min before copper phenanthroline cross-linking

## Cry2–mCh–DAT, optogenetic fusion chimera of cryptochrome 2 and DAT with an mCherry fluorescent reporter (from UniProt Q01959 1-620)
[1]
  IDT307 uptake in differentiated SH-SY5Y cells expressing Cry2–DAT, blue light against no blue light: 2.5 fold
[2]
  stoichiometry N: 2

B1: YFP–DAT (dopamine transporter with N-terminal YFP) (natural protein, UniProt Q01959 1-620, looked up)
chain: MSKSKCSVGLMSSVVAPAKEPNAVGPKEVELILVKEQNGVQLTSSTLTNPRQSPVEAQDRETWGKKIDFLLSVIGFAVDLANVWRFPYLCYKNGGGAFLVPYLLFMVIAGMPLFYMELALGQFNREGAAGVWKICPILKGVGFTVILISLYVGFFYNVIIAWALHYLFSSFTTELPWIHCNNSWNSPNCSDAHPGDSSGDSSGLNDTFGTTPAAEYFERGVLHLHQSHGIDDLGPPRWQLTACLVLVIVLLYFSLWKGVKTSGKVVWITATMPYVVLTALLLRGVTLPGAIDGIRAYLSVDFYRLCEASVWIDAATQVCFSLGVGFGVLIAFSSYNKFTNNCYRDAIVTTSINSLTSFSSGFVVFSFLGYMAQKHSVPIGDVAKDGPGLIFIIYPEAIATLPLSSAWAVVFFIMLLTLGIDSAMGGMESVITGLIDEFQLLHRHRELFTLFIVLATFLLSLFCVTNGGIYVFTLLDHFAAGTSILFGVLIEAIGVAWFYGVGQFSDDIQQMTGQRPSLYWRLCWKLVSPCFLLFVVVVSIVTFRPPHYGAYIFPDWANALGWVIATSSMAMVPIYAAYKFCSLPGSFREKLAYAIAPEKDRELVDRGEVRQFTLRHWLKV
notes: dopamine transporter (DAT); also called YFPsynDAT; source: HEK293 cells stably expressing YFP–DAT, in or on cells; not shown: YFP, N-terminal, kept
[3]
  stoichiometry N: 2
[4]
  stoichiometry N: 4
[5]
  stoichiometry N: 3
